Reference: US20230295335A1 (published 2023)

Tests used:
[1] = biological target: T1, recombinant human EpCAM (R&D systems, cat no 9277-EP) (human, UniProt P16422 24-265); assay: BLI (Octet HTX); His-tagged human EpCAM on anti-Penta-HIS sensors, antibody as analyte; 1:1 global full fit
T1 construct: also called human EpCAM extracellular domain
T1 sequence: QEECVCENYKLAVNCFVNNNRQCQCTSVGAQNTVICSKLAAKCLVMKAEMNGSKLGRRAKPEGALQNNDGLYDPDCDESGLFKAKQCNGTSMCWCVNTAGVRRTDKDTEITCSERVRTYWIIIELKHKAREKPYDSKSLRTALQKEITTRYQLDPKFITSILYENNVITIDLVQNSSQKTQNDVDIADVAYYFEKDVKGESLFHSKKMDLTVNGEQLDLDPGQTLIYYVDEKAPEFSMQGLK

[2] = biological target: T1, recombinant human EpCAM (R&D systems, …); assay: BLI (Octet HTX); His-tagged human EpCAM on anti-Penta-HIS sensors, antibody 1.56-100 nM as analyte
[3] = biological target: T2, full length human EpCAM on cells (human, UniProt P16422 24-314); assay: flow cytometry on CHO-S cells transfected with human EpCAM
T2 construct: the cell line is named under assay; also called EpCAM on DiFi, HPAF-II and A549 tumor cells; CHO-S cells transfected with full length human EpCAM
T2 sequence: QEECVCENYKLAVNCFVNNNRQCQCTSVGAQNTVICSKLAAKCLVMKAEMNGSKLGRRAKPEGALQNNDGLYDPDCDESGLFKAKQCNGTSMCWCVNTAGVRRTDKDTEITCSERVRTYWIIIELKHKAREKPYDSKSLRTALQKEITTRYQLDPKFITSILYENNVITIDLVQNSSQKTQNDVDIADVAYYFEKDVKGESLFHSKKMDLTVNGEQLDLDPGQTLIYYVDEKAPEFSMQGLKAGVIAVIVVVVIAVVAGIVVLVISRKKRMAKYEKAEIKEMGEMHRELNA

[4] = biological target: T3, full length mouse EpCAM on CHO-S cells (mouse, UniProt Q99JW5 24-315); assay: flow cytometry on CHO-S cells transfected with mouse EpCAM
T3 sequence: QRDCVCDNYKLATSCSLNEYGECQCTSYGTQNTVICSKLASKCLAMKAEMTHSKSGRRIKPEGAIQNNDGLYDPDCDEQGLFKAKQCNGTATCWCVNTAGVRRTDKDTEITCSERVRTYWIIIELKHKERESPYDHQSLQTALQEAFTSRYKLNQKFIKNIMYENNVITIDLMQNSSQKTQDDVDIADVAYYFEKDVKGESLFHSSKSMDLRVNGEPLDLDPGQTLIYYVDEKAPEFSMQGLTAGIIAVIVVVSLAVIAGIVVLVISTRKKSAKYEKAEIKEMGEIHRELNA

[5] = biological target: T4, full length cynomolgus monkey EpCAM on CHO-S cells (cynomolgus monkey, UniProt Q1WER1 24-314 (rhesus entry)); assay: flow cytometry on CHO-S cells transfected with cynomolgus monkey EpCAM
T4 sequence: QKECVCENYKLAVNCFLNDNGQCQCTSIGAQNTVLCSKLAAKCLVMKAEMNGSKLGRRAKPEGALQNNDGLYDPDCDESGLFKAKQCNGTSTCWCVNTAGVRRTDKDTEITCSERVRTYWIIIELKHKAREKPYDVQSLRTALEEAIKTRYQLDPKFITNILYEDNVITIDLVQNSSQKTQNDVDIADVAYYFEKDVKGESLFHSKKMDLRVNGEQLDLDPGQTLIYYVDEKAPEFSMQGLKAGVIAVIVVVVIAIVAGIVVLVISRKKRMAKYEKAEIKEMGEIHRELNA

[6] = biological target: T2, full length human EpCAM on cells; assay: flow cytometry on DiFi, HPAF-II and A549 tumor cells

B1: BisG2amm-EpCAM-323-A3-AALT/m4-1BB-3H3-AAKR (bispecific antibody, mouse IgG2a, kappa)
heavy 1: QIQLVQSGPELKKPGETVKISCKASGYTFTNYGMNWVRQASGEGLKWMGWINTYTGEPTYGEDFKGRFAFSLETSASTAYLQINNLKNEDTATYFCARFGNYVDYWGQGTTLTVSSAKTTAPSVYPLAPVCGDTTGSSVTLGCLVKGYFPEPVTLTWNSGSLSSGVHTFPAVLQSDLYTLSSSVTVTSSTWPSQSITCNVAHPASSTKVDKKIEPRGPTIKPCPPCKCPAPNAAGGPSVFIFPPKIKDVLMISLSPMVTCVVVDVSEDDPDVQISWFVNNVEVLTAQTQTHREDYNSTLRVVSALPIQHQDWMSGKEFKCKVNNKALPAPIERTISKPKGSVRAPQVYVLPPPEEEMTKKQVTLTCMVTDFMPEDIYVEWTNNGKTELNYKNTEPVLDSDGSYLMYSKLTVEKKNWVERNSYSCSVVHEGLHNHHTTKSFSRTPG
light 1: DIVMTQAAFSNPVTLGTSASISCRSSKNLLHSNGITYLYWYLQKPGQSPHLLIYQMSNLASGVPDRFSSSGSGTDFTLRISRVEAEDVGVYYCAQNLEIPRTFGGGTKLEIKRADAAPTVSIFPPSSEQLTSGGASVVCFLNNFYPKDINVKWKIDGSERQNGVLNSWTDQDSKDSTYSMSSTLTLTKDEYERHNSYTCEATHKTSTSPIVKSFNRNEC
heavy 2: EMQLVESGGGLVQPGRSMKLSCAGSGFTLSDYGVAWVRQAPKKGLEWVAYISYAGGTTYYRESVKGRFTISRDNAKSTLYLQMDSLRSEDTATYYCTIDGYGGYSGSHWYFDFWGPGTMVTVSSAKTTAPSVYPLAPVCGDTTGSSVTLGCLVKGYFPEPVTLTWNSGSLSSGVHTFPAVLQSDLYTLSSSVTVTSSTWPSQSITCNVAHPASSTKVDKKIEPRGPTIKPCPPCKCPAPNAAGGPSVFIFPPKIKDVLMISLSPMVTCVVVDVSEDDPDVQISWFVNNVEVLTAQTQTHREDYNSTLRVVSALPIQHQDWMSGKEFKCKVNNKALPAPIERTISKPKGSVRAPQVYVLPPPEEEMTKKQVTLTCMVKDFMPEDIYVEWTNNGKTELNYKNTEPVLDSDGSYFMYSRLRVEKKNWVERNSYSCSVVHEGLHNHHTTKSFSRTPG
light 2: DIQMTQSPSLLSASVGDRVTLNCRTSQNVYKNLAWYQQKLGEAPKLLIYNANSLQAGIPSRFSGSGSGTDFTLTISSLQPEDVATYFCQQYYSGNTFGAGTNLELKRADAAPTVSIFPPSSEQLTSGGASVVCFLNNFYPKDINVKWKIDGSERQNGVLNSWTDQDSKDSTYSMSSTLTLTKDEYERHNSYTCEATHKTSTSPIVKSFNRNEC
notes: Mouse IgG2a bispecific made by controlled Fab-arm exchange; one EpCAM arm, so monovalent for EpCAM; also called BsIgG2amm-EpCAM-323-A3-AALT/m4-1BB-3H3-AAKR; BisIgG2amm-EpCAM-323-A3-AALT/m4-1BB-3H3-AAKR
Kd [1]: 3.2 nM
koff [1]: 0.0011 s⁻¹
kon [1]: 340000 M⁻¹ s⁻¹
Response [2]: 1.21 nm

B2: bsIgG1-b12-FEAL/EpCAM-323-A3-FEAR (bispecific antibody)
heavy 1: QVQLVQSGAEVKKPGASVKVSCQASGYRFSNFVIHWVRQAPGQRFEWMGWINPYNGNKEFSAKFQDRVTFTADTSANTAYMELRSLRSADTAVYYCARVGPYSWDDSPQDNYYMDVWGKGTTVIVSSASTKGPSVFPLAPSSKSTSGGTAALGCLVKDYFPEPVTVSWNSGALTSGVHTFPAVLQSSGLYSLSSVVTVPSSSLGTQTYICNVNHKPSNTKVDKRVEPKSCDKTHTCPPCPAPEFEGGPSVFLFPPKPKDTLMISRTPEVTCVVVAVSHEDPEVKFNWYVDGVEVHNAKTKPREEQYNSTYRVVSVLTVLHQDWLNGKEYKCKVSNKALPAPIEKTISKAKGQPREPQVYTLPPSREEMTKNQVSLTCLVKGFYPSDIAVEWESNGQPENNYKTTPPVLDSDGSFLLYSKLTVDKSRWQQGNVFSCSVMHEALHNHYTQKSLSLSPG
light 1: EIVLTQSPGTLSLSPGERATFSCRSSHSIRSRRVAWYQHKPGQAPRLVIHGVSNRASGISDRFSGSGSGTDFTLTITRVEPEDFALYYCQVYGASSYTFGQGTKLERKRTVAAPSVFIFPPSDEQLKSGTASVVCLLNNFYPREAKVQWKVDNALQSGNSQESVTEQDSKDSTYSLSSTLTLSKADYEKHKVYACEVTHQGLSSPVTKSFNRGEC
heavy 2: QIQLVQSGPELKKPGETVKISCKASGYTFTNYGMNWVRQASGEGLKWMGWINTYTGEPTYGEDFKGRFAFSLETSASTAYLQINNLKNEDTATYFCARFGNYVDYWGQGTTLTVSSASTKGPSVFPLAPSSKSTSGGTAALGCLVKDYFPEPVTVSWNSGALTSGVHTFPAVLQSSGLYSLSSVVTVPSSSLGTQTYICNVNHKPSNTKVDKRVEPKSCDKTHTCPPCPAPEFEGGPSVFLFPPKPKDTLMISRTPEVTCVVVAVSHEDPEVKFNWYVDGVEVHNAKTKPREEQYNSTYRVVSVLTVLHQDWLNGKEYKCKVSNKALPAPIEKTISKAKGQPREPQVYTLPPSREEMTKNQVSLTCLVKGFYPSDIAVEWESNGQPENNYKTTPPVLDSDGSFFLYSRLTVDKSRWQQGNVFSCSVMHEALHNHYTQKSLSLSPG
light 2: DIVMTQAAFSNPVTLGTSASISCRSSKNLLHSNGITYLYWYLQKPGQSPHLLIYQMSNLASGVPDRFSSSGSGTDFTLRISRVEAEDVGVYYCAQNLEIPRTFGGGTKLEIKRTVAAPSVFIFPPSDEQLKSGTASVVCLLNNFYPREAKVQWKVDNALQSGNSQESVTEQDSKDSTYSLSSTLTLSKADYEKHKVYACEVTHQGLSSPVTKSFNRGEC
binding result [3]: binds
binding result [4]: binds
binding result [5]: binds

B3: IgG1-b12-FEAL (antibody, V domains shown)
VH: QVQLVQSGAEVKKPGASVKVSCQASGYRFSNFVIHWVRQAPGQRFEWMGWINPYNGNKEFSAKFQDRVTFTADTSANTAYMELRSLRSADTAVYYCARVGPYSWDDSPQDNYYMDVWGKGTTVIVSS
VL: EIVLTQSPGTLSLSPGERATFSCRSSHSIRSRRVAWYQHKPGQAPRLVIHGVSNRASGISDRFSGSGSGTDFTLTITRVEPEDFALYYCQVYGASSYTFGQGTKLERKR
notes: also called negative control antibody
binding result [6]: no binding (tested: up to 50 µg/mL)
